Laboratory results reported in patent publication US20240010735A1 (EISAI R AND D MANAGEMENT, published 2024).

Experiments:
Experiment in all cases: ELISA: SEAP-His proteins (1 nM) captured on anti-6-His antibody, antibody A 10 µg/mL with human IgG 100 µg/mL, HRP anti-mouse IgG, OD450 as % of human EphA4-SEAP-His
[1] = biological target: T1, human EphB4 extracellular region-SEAP-His protein (human, UniProt P54760 16-539)
T1 construct: extracellular domain; also called Eph receptor extracellular region-SEAP-His protein; not shown: secretory alkaline phosphatase (SEAP); histidine tag
T1 sequence (looked up): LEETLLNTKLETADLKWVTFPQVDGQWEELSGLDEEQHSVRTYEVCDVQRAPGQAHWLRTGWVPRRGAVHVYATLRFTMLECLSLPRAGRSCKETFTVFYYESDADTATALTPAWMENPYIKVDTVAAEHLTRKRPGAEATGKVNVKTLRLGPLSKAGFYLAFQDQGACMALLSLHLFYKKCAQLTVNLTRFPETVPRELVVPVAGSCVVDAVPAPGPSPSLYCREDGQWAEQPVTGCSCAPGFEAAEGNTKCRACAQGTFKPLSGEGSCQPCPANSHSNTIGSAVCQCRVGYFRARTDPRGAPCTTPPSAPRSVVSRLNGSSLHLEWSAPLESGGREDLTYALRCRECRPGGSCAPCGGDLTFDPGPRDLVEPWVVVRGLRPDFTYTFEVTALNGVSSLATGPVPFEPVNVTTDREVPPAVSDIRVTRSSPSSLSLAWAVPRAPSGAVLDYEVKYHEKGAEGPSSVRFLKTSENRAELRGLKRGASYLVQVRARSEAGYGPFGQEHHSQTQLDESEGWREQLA
Protocol: (§1) Rabbit anti-6-His antibodies (Bethel Laboratories) were coated onto the wells of a 96-well plate (Nunc). After incubating at 4° C. overnight, the wells were blocked at room temperature for 1 hour by 1% Block Ace (DS Pharma Biomedical). After washing 3 times with 0.05% Tween 20/PBS (Thermo […]), each Eph receptor of human extracellular region-SEAP-His protein (final concentration 1 nM) was seeded into each well, and incubated at room temperature for 1 hour. After washing 3 times, human IgG solution (100 μg/mL, Mitsubishi Pharma Corporation) and antibody A (10 μg/mL) were supplemented to the wells, and incubated at room temperature for 1 hour. Horseradish peroxidase-labeled donkey anti-mouse IgG antibody (Jackson ImmunoResearch Laboratories) was added, and incubated at room, temperature for 1 hour. After washing 3 times, TMBZ (3,3′,5,5′-tetramethylbenzidine, Sigma) solution was added to the wells, and upon confirmation of modest coloring, an equal amount of quenching solution (1 N H₂SO₄, Wako Pure Chemicals) was added to the wells, and absorbance at 450 nm was read by a microplate reader (PerkinElmer).

[2] = biological target: T2, human EphA10 extracellular region-SEAP-His protein (human, UniProt Q5JZY3 34-565)
T2 construct: extracellular domain; also called Eph receptor extracellular region-SEAP-His protein; not shown: secretory alkaline phosphatase (SEAP); histidine tag
T2 sequence (looked up): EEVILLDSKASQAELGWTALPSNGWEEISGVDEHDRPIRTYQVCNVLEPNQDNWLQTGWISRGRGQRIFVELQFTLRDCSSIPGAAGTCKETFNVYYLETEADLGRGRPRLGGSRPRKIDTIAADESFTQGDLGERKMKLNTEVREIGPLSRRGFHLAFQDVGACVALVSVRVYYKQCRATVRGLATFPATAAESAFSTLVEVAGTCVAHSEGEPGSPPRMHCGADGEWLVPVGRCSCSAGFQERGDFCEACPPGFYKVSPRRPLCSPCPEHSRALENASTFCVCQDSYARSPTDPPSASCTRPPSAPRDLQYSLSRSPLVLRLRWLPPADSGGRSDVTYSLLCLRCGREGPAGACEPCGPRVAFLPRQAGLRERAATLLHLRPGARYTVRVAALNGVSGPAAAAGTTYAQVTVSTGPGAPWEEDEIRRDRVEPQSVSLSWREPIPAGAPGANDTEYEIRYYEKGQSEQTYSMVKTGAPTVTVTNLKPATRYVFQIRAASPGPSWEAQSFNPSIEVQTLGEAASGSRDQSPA
Protocol: as §1

[3] = biological target: T3, human EphB1 extracellular region-SEAP-His protein (human, UniProt P54762 18-540)
T3 construct: extracellular domain; also called Eph receptor extracellular region-SEAP-His protein; not shown: secretory alkaline phosphatase (SEAP); histidine tag
T3 sequence (looked up): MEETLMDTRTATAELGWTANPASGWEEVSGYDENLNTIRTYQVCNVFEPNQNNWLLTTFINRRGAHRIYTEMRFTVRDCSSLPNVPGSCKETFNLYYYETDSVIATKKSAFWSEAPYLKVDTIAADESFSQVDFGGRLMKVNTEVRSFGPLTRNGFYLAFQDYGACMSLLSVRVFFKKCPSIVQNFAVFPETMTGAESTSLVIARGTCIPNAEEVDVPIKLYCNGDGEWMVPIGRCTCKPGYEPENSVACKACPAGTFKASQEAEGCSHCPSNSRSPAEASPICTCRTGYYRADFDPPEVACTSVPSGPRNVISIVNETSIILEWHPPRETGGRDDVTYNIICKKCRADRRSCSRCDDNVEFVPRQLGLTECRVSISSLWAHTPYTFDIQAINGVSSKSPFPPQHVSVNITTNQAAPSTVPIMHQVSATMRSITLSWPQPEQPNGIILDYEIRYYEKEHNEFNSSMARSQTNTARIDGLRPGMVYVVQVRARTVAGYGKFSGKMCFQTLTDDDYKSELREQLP
Protocol: as §1

Measured: binding result

B1: mouse anti-EphA4 monoclonal antibody (antibody A) (antibody, mouse IgG1, kappa, V domains shown)
VH: QVQLKQSGPSLVQPSQSLSITCTVSGFSLTRYGVHWVRQSPGKGLEWLGVIWRGGSTDYNAAFMSRLSITKDNSKSQVFFKMNSLQADDTAIYYCAKESLFGVYYDYGYYSMDYWGQGTSVTVSS
VL: DIQMTQSPSSLSASLGERVSLTCRASQEISGYLSWLQQKPDGTIKRLIYAASTLDSGVPKRFSGSRSGSDYSLTISSLESEDFADYYCLQYASYPLTFGAGTKLELKR
notes: purified from hybridoma supernatant
no binding (tested: 10 µg/mL): [1] | [2] | [3]
